Source: patent US20220403048A1, “BINDING MOLECULES TO ARGINASE II [ARG2]” (Cancer Research Technology Limited, priority 2019, published 2022)

T1: ARG2 (Homo sapiens, UniProt P78540)
T1 sequence (P78540 23-354): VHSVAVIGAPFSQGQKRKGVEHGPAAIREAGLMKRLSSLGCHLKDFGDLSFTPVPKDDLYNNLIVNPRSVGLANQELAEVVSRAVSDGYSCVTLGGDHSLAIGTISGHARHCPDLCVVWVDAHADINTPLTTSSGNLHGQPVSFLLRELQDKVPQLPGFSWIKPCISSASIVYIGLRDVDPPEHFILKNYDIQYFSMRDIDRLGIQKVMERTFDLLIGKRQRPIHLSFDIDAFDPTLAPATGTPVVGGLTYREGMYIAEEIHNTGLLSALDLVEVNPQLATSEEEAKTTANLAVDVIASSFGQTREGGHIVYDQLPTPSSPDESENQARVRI


How the values were obtained:
ARG2 [1] = biological target: T1, ARG2; test: T cell proliferation assay (BrdU, 72 hours) with exogenous ARG2; format: cell-based; conditions: In Absence of rhARG2
Protocol: This assay served to provide in vitro evidence of functional efficacy for each antibody.
Briefly, Leukocyte cones (NHS Blood and Transplant, Watford, UK) underwent Ficoll Plaque (GE, Sweden; Cat: 17-1440-02) gradient separation, PBMC's were extracted and pan T cell population isolated by negative selection using the Human T Cell Enrichment Kit (Stemcell Technologies, France; Cat: 19051) according to the manufacturer's instructions.
40000 cells/well were seeded in complete growth media (RMPI 1640, 5% Human Serum Albumin) into a 96 well clear TC treated microplate (Greiner-Bio One, Germany; Cat: 655180). T Cells were activated by the addition of ImmunoCult CD3/CD28 (Stemcell Technologies, France; Cat: 10971) at a dilution of 1:40 directly into wells and the plate incubated 37° C., 5% CO2 for 45 minutes.
To determine EC50's of test antibodies, a dilution series was created in sterile TBS at 8× the final assay concentration was added to the assay plate containing cells. Plate was incubated for 30 minutes at 37° C., 5% CO2.
ARG2 was added to relevant wells of the plate at a final concentration of 15 μg/ml. The equivalent volume of ARG2 vehicle and test antibody vehicle was added to relevant control wells. […]
Calculated data was expressed as % of control (Equation 3) and graphical plots were constructed using a four parameter fit and EC50's determined using model 205 in XLFit (IDBS, UK). […]

ARG2 [2] = biological target: T1, ARG2; test: Size-exclusion chromatography of ARG2-Fab binding stoichiometry; design: human ARG2 (aa23-354); His10 (C); made in house; host or cells: E. coli BL21 (DE3); conditions: FIG. 23A
Protocol: ARG2 and Fabs were analysed at concentrations of 8 μM (referring to monomers) in SEC buffer containing 25 mM tris at pH 7.4 and 150 mM NaCl. ARG2-Fab complexes were formed by mixing both ARG2 and Fabs at concentrations of 8 μM (referring to monomers) in SEC buffer and incubation on ice for 1 h. For size-exclusion chromatography, […] of sample were injected into a 100 μl loop connected to a Superose 6 Increase 10/300 GL column (GE Healthcare) which was mounted to an AKTAexpress FPLC system (GE Healthcare). The column was equilibrated in SEC buffer, and SEC was performed at a flow rate of 0.5 ml/min. Molecular-weight estimates are based on the retention volumes seen for β-amylase, bovine serum albumin and carbonic anhydrase, which were analysed on the same FPLC system under identical conditions.

Row | EC50 (ARG2 [1]) [nM] | Maximum % Proliferation (ARG2 [1]) [%] | size-exclusion peak of 1:1 molar mixture of ARG2 and Fab (ARG2 [2]; 8 μM each) [kDa] | Fabs bound to one ARG2 trimer (ARG2 [2]; from size-exclusion profile) | Molecule
1 | < 0.8 | 82 | – | – | C0020065: anti-ARG2 antibody, alternate lead isolation clone, VH SEQ ID NO: 2, VL SEQ ID NO: 7 (antibody, listed as Homo sapiens, V domains shown, C0020065) VH: GVNLRESGGGVVQPGRSLRLSCAASGFTFSSYAMHWVRQAPGKGLEWVAVISYDGSNKYYVDSVKGRFTISRDNSKNTLYLQMNSLRAEDTAVYYCARDSSQLWFDYWGRGTLVTVSS VL: QSVVTQPPSVSGAPGQRVTISCTGSSSNIGTGYDVHWYQQLPGTAPKLLIYGNSNRPSGVPDRFSGSKSGTSASLAITGLQAEDEADYYCQSYDSSLSGSVVFGGGTQLTVL
2 | – | – | 275 | three Fabs | C0021139: anti-ARG2 antibody, VH SEQ ID NO: 212, VL SEQ ID NO: 217 (antibody, listed as Homo sapiens, V domains shown, C0021139) VH: EVQLLESGGGLVQPGGSLRLSCAASGFTFQYDYQVWVRQAPGKGLEWVSAISGSGGSTYYADSVKGRFTISRDNSKNTLYLQMNSLRAEDTAVYYCARLRADLGLYMDLWGRGTLVTVSS VL: QSVLTQPPSVSAAPGQKVTISCSGSSSNIGNHYVSWYQQLPGTAPKLLIYDNSERTSGIPDRFSGSKSGTSATLGITGLQTGDEADYYCGTWDELTSNLVFGGGTKLTVL
